Source: the supplement of paper PMC9170038

Tested on: MS2 coat protein
Test: apparent KD of MS2 coat protein; designed switch direction (-1 OFF switch, 1 ON switch): 1; higher = weaker reporter binding
In short: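 Three titration conditions were used: no input, 200 uM small-molecule ligand, and an oligonucleotide input. In each, SNAP-549-labelled MS2 coat protein was raised from 0.7 or 1.5 nM, doubling, to 3 µM over designed RNA switches transcribed on Illumina chips by stalled E. coli RNA polymerase. Curve fits of normalised cluster fluorescence gave values whose per-design median over clusters is the apparent KD.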

[1] = Eterna round: R95, input ligand: FMN 200 uM
[2] = Eterna round: R95, input ligand: microRNA oligo, concentration not stated
[3] = Eterna round: R95, input ligand: none
[4] = input ligand: microRNA oligo, concentration not stated

Row | Sequence | apparent KD of MS2 coat protein [1] [nM] | apparent KD of MS2 coat protein [2] [nM] | apparent KD of MS2 coat protein [3] [nM] | apparent KD of MS2 coat protein (input ligand: FMN 200 uM) [nM] | apparent KD of MS2 coat protein [4] [nM] | apparent KD of MS2 coat protein (input ligand: none) [nM]
1 | AACAAUCUAUCUGAGGAUAUCAUGAAAUAAACAUGAGGAUCACCCAUGUGCAGGAAAACUGCAUAUGAGAAGGCAUAUAGAUUGA [salish99_ss2_r3_052] (puzzle: Same State 2) | 63.7 | 465 | 1560 | – | – | –
2 | AACAAUCUAUCUGAGGAUAUCAUGAAAUAAACAUGAGGAUCACCCAUGUGCAGGAAAACUGCAUUUGAGAAGGCAGAUAGAUUGA [salish99_ss2_r3_048] (puzzle: Same State 2) | 14.6 | 106 | 67.2 | – | – | –
3 | AACAAUCUAUCUGAGGAUAUCAUGAAAUAAACAUGAGGAUCACCCAUGUGCAGGAAAAUUGCAUAUGAGAAGGCAGAUAGAUUGA [salish99_ss2_r3_044] (puzzle: Same State 2) | 37.9 | 771 | 669 | – | – | –
4 | AACAAUCUAUCUGAGGAUAUCAUGUCAAAGACAUGAGGAUCACCCAUGUUGCAGGAAACUGCUCAUGAGAAGGCAGAUAGAUUGA [SS2: 1129] (Eterna round: R96, puzzle: Same State 2) | – | – | – | 41 | 329 | 385
5 | AACAUGAGGAUCACCCAUGUGGAAUACUGAAGCAGCUCAGGGAAGGAUAUGGUUGACACCCUCGACCAGAAGGUCCAAAUUAAA [Onarar] (Eterna round: R96, puzzle: Same State NG 3) | – | – | – | 63.3 | 98.2 | 121
6 | AACUUACUAUCUCAGGAUAUCAUGUCAAAGACAUGAGGAUCACCCAUGUACCAGGAAACUGGUUAUGAGAAGGGAGAUAGUAAGA [Mat - Same State 2 - Mod - D49] (puzzle: Same State 2) | 167 | 128 | 611 | – | – | –
7 | AAGAAACAUGAGGAUCACCCAUGUAAGAUAAACACAGGAUAUGCGAAUAAAAUAAAUAAAGCAGAAGGGUGAAGAA [Mat - Same State 1 - Tesla mod - D150] (Eterna round: R96, puzzle: Same State 1) | – | – | – | – | 38.9 | –
8 | AAGUGGAACUGAGGAUAUGGCAUCCGAACAUGAGGAUCACCCAUGUAGUUAGGAAAAGAACGGAGCCAGAAGGUAGGACUCCGC [Soqube] (Eterna round: R96, puzzle: Same State NG 2) | – | – | – | 10.6 | 9.65 | 15
9 | AAUAUACAUGAGGAUCACCCAUGUUAGUAAAUGACAGGAUAUGCAAUAAAUAAAUAAUAAGCAGAAGGGUCUAAUA [JMF's solution 1] (puzzle: Same State 1) | 13.7 | 14.2 | 16 | – | – | –
10 | AAUCGUUUGAUAGGAUAUCGCUAUACAUGAGGAUCACCCAUGUUUACCACGCUGGUUUUUCGUACCGAGAAGGAUUCUGAUGAU [JL JR sub007 mod 4] (Eterna round: R96, puzzle: Same State NG 2) | – | – | – | 36 | 25.4 | 36.1
11 | AAUUAAGAUCAAGGAUAUCACGUCGAUUAGACGUGAGAAGGUGAUCCAUACAUGAGGAUCACCCAUGUAUAACAUGAAUUAAUU [SSNG1/8-B2] (Eterna round: R96, puzzle: Same State NG 1) | – | – | – | 395 | 626 | 1580
12 | AAUUAAGAUCGAGGAUAUCACGUCGAUUAGACGUGAGAAGGCGAUCAUAACAUGAGGAUCACCCAUGUAUUACAUGAAUUAAUU [SSNG1/4-B2] (Eterna round: R96, puzzle: Same State NG 1) | – | – | – | 33.4 | 26.7 | 36.6
13 | AAUUAAGAUCUAGGAUAUCACGUCGAAUAGACGUGAGAAGGAGAUCAUAACAUGAGGAUCACCCAUGUAUUACAUGAAUUAAUU [SSNG1/6-B1] (Eterna round: R96, puzzle: Same State NG 1) | – | – | – | 28 | 21.6 | 28.4
14 | AAUUAAUUAAUUAAUAUACAUGAGGAUCACCCAUGUAAGAUCAAGGAUAUCAGCUCGAAUAGAGCUGAGAAGGUGAUCACAUGU [SSNG3/16-A1] (Eterna round: R96, puzzle: Same State NG 3) | – | – | – | – | 251 | –
15 | ACAAGCUUUUUAGGAGAGAAAGGAGGGAAACAUGAGGAUCACCCAUGUAUGGUAGUGAAUAGAGGAACUCGUCUUAU [JR_SHM208A_Sub080] (puzzle: Sensor for hsa-mir-208a) | 90.5 | 25.6 | 152 | – | – | –
16 | ACAGCGAAACAUGAGGAUCACCCAUGUAAAGAAUAGGUGAAUUGUUGCUCGUCUUGAAGAGAAGAGAAGAAGGAGAG [Victory 1] (puzzle: Sensor for hsa-mir-208a version 2) | 192 | 101 | 180 | – | – | –
17 | ACAUAGGUUUCAGGAUAUGGGUAAAUUCCCUACAUGAGGAUCACCCAUGUCCGUAGGGAUAACAUCCAGAAGGGAAGCCACAUA [MOD3 Eternabot Solution 1 (Score 87.5)] (Eterna round: R96, puzzle: Same State NG 2) | – | – | – | 175 | 144 | 221
18 | ACAUGACAUGACAUGAGGAUCACCCAUGUGAGGAUCACCCGGGAGGAUAUAGCCCAUGUGGAUCACUAGAAGGCCCUGAGGAUC [Same State NG3 S1] (Eterna round: R96, puzzle: Same State NG 3) | – | – | – | 36.4 | 39.5 | 49.5
19 | ACAUGAGACAUAGGAUAUCUUGUACCUACAUGUGACAUGAGGAUCACCCAUGUGGUAAGUAUGAGAGAGAAGGAUGAGAUAUGU [Equivalence 48 - Jieux - Same State NG 2] (Eterna round: R96, puzzle: Same State NG 2) | – | – | – | 17.5 | 17.9 | 20.6
20 | ACAUGAGACAUAGGAUAUGUUGUACCUACAUGUGACAUGAGGAUCACCCAUGUGGUAAGUAUGAGACAGAAGGAUGAGAUAUGU [Equivalence 30 - Jieux - Same State NG 2] (Eterna round: R96, puzzle: Same State NG 2) | – | – | – | 27.5 | 43.4 | 73
21 | ACAUGAGACCUAGGAUAUUUUGUACCUACAUGUGACAUGAGGAUCACCCAUGUGGUAAGUAUGAGAAAGAAGGAGGAGAUAUGU [Equivalence 21 - Jieux - Same State NG 2] (Eterna round: R96, puzzle: Same State NG 2) | – | – | – | 18.1 | 30.1 | 36.7
22 | ACAUGAGAGCGAGGAUAUAUUGUACCUACAUGUGACAUGAGGAUCACCCAUGUGGUAAGUAUGACAUAGAAGGCGCAGAUAUGU [Equivalance 91 - Jieux - Same State NG 2] (Eterna round: R96, puzzle: Same State NG 2) | – | – | – | 21.4 | 27.8 | 33.7
23 | ACAUGAGGAUCACCCAUGUAACACCUGAAAAUAAAACGAACACAGGAUAUCCCGACAUGACGUUGGGAGAAGGGUGAUCGAAGA [Leenrien] (Eterna round: R96, puzzle: Same State NG 3) | – | – | – | 269 | 202 | 29.6
